Assay [1] addresses T1, human CD166 protein (human) (UniProt Q13740).
T1 sequence (looked up): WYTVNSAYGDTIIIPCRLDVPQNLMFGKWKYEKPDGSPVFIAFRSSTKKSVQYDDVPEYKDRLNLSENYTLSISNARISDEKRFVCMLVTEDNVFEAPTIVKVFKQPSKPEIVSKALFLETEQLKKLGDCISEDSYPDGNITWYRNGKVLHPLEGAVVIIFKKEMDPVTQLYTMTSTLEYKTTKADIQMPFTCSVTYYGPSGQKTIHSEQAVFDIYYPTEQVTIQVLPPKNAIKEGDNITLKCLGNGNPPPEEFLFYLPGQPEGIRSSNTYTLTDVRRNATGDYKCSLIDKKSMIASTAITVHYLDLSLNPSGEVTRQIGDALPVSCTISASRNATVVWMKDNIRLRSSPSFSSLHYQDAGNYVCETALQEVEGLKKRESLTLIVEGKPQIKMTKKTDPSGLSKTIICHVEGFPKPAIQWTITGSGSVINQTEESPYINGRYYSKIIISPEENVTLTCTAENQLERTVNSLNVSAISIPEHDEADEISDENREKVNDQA
As to the kind of experiment: ELISA; relative to parental CD166 M9 vk1/HcB. (In general: ELISA stands for enzyme-linked immunosorbent assay.)

The target of assay [2] is T1, human CD166 protein (human). As to the kind of experiment: ELISA, human CD166 protein coated; apparent Kd.

B1: CD166-16522.18-2001 (antibody, part only; not given: linkers and constant regions, V domains shown, not shown: small tags and cut ends)
VH: QITLKESGPTLVKPTQTLTLTCTFSGFSLSTYGMGVGWIRQPPGKALEWLANIWWSEDKHYSPSLKSRLTITKDTSKNQVVLTMTNMDPVDTATYYCVQIDYGNDYAFTYWGQGTLVTVSS
VL, part: LEGWCLHPACLWGAGISSGLLSGRSDNHDIVMTQSPLSLPVTPGEPASISCRSSKSLLHSNGITYLYWYLQKPGQSPQLLIYQMSNLASGVPDRFSGSGSGTDFTLKISRVEAEDVGVYYCAQNLELPYTFGQGTKLEIK
With B1, the Fold Increase in Kd in assay [1] was 13 fold. In assay [2], the Kd was determined as 57.7 nM.

B2: CD166-16522.21-2001 (antibody, part only; not given: linkers and constant regions, V domains shown, not shown: small tags and cut ends)
VH: QITLKESGPTLVKPTQTLTLTCTFSGFSLSTYGMGVGWIRQPPGKALEWLANIWWSEDKHYSPSLKSRLTITKDTSKNQVVLTMTNMDPVDTATYYCVQIDYGNDYAFTYWGQGTLVTVSS
VL, part: CLHPLCISSGLLSGRSDNHDIVMTQSPLSLPVTPGEPASISCRSSKSLLHSNGITYLYWYLQKPGQSPQLLIYQMSNLASGVPDRFSGSGSGTDFTLKISRVEAEDVGVYYCAQNLELPYTFGQGTKLEIK
As for B2, in assay [1], the Fold Increase in Kd was 33 fold. Also, the Kd in assay [2] was determined as 145 nM.

B3: CD166-16522.20-2001 (antibody, part only; not given: linkers and constant regions, V domains shown, not shown: small tags and cut ends)
VH: QITLKESGPTLVKPTQTLTLTCTFSGFSLSTYGMGVGWIRQPPGKALEWLANIWWSEDKHYSPSLKSRLTITKDTSKNQVVLTMTNMDPVDTATYYCVQIDYGNDYAFTYWGQGTLVTVSS
VL, part: LEGWCLHPLCLAGAGISSGLLSGRSDNHDIVMTQSPLSLPVTPGEPASISCRSSKSLLHSNGITYLYWYLQKPGQSPQLLIYQMSNLASGVPDRFSGSGSGTDFTLKISRVEAEDVGVYYCAQNLELPYTFGQGTKLEIK
For B3, the Fold Increase in Kd in assay [1] was found to be 158 fold. Further, the Kd in assay [2] worked out at 700 nM.

B4: CD166-16522.19-2001 (antibody, part only; not given: linkers and constant regions, V domains shown, not shown: small tags and cut ends)
VH: QITLKESGPTLVKPTQTLTLTCTFSGFSLSTYGMGVGWIRQPPGKALEWLANIWWSEDKHYSPSLKSRLTITKDTSKNQVVLTMTNMDPVDTATYYCVQIDYGNDYAFTYWGQGTLVTVSS
VL, part: LEGWCLHPLCAWGAGISSGLLSGRSDNHDIVMTQSPLSLPVTPGEPASISCRSSKSLLHSNGITYLYWYLQKPGQSPQLLIYQMSNLASGVPDRFSGSGSGTDFTLKISRVEAEDVGVYYCAQNLELPYTFGQGTKLEIK
For B4, the Fold Increase in Kd in assay [1] came out at 11 fold. The Kd in assay [2] amounted to 49.2 nM.

The values above are taken from US20160355587A1.
